{
  "source": "paper PMC11358414",
  "biological_target": "DEP-Venus (DEP domain of Disheveled, DVL) (UniProt O14641)",
  "assay": "NanoBiT-based DEP recruitment BRET assay (BRET titration)",
  "conditions": "HEK293A cells, FLAG-LgBiT-CAAX cotransfected, baseline-corrected …, parent: est. 0.38, read off a plot",
  "data": [
    {"substance": "FZD7-SmBiT, wild type (from UniProt O75084) F345A; H382A", "values": [
      {"measurement": "response", "setting": "value read at the right end of the fitted curve (Venus fluorescence about 27000 arb. units)", "result": 0.08, "unit": "net BRET"}
    ]},
    {"substance": "FZD7-SmBiT, wild type (from UniProt O75084) F345A; W386A", "values": [
      {"measurement": "response", "setting": "value read at the right end of the fitted curve (Venus fluorescence about 23000 arb. units)", "result": 0.1, "unit": "net BRET"}
    ]}
  ]
}
